Measured values from patent US20170369572A1.

Target: human CD47 on CCRF-CEM cells (human) (UniProt Q08722)
Assay: flow cytometry on CCRF-CEM cells, MFI against concentration, one site specific binding with Hill slope

B1: B6H12, mu anti-hu CD47 (antibody, from another filing, V domains shown)
VH: EVQLVESGGDLVKPGGSLKLSCAASGFTFSGYGMSWVRQTPDKRLEWVATITSGGTYTYYPDSVKGRFTISRDNAKNTLYLQIDSLKSEDTAIYFCARSLAGNAMDYWGQGTSVTVSS
VL: DIVMTQSPATLSVTPGDRVSLSCRASQTISDYLHWYQQKSHESPRLLIKFASQSISGIPSRFSGSGSGSDFTLSINSVEPEDVGVYYCQNGHGFPRTFGGGTKLEIK
- Kd: 16 nM
